Earlier results, collected in paper PMC5266585.

Legend:
[1] = molecular target: LRP1 principal ligand binding region fragments (Homo sapiens) (UniProt Q07954)
[2] = molecular target: LRP1 CR4-CR5-CR6 (Homo sapiens) (UniProt Q07954)

Kd [1]: < 3 nM
Kd [2]: 1.5 nM
Substance: PAI-1 (from UniProt P05121)
